Values of other authors, collected in patent US20230279355A1, “METHOD FOR THE IN VITRO OR EX VIVO AMPLIFICATION OF STEM CELLS OF BROWN OR BEIGE ADIPOCYTES” (CENTRE NATIONAL DE LA RECHERCHE SCIENTIFIQUE, priority 2020, published 2023).

Test system: UCP1
Conditions: described in the literature

B1: Epidermal Growth Factor (protein, UniProt P01133 23-1207, looked up)
Pro-epidermal growth factor: PQHWSCPEGTLAGNGNSTCVGPAPFLIFSHGNSIFRIDTEGTNYEQLVVDAGVSVIMDFHYNEKRIYWVDLERQLLQRVFLNGSRQERVCNIEKNVSGMAINWINEEVIWSNQQEGIITVTDMKGNNSHILLSALKYPANVAVDPVERFIFWSSEVAGSLYRADLDGVGVKALLETSEKITAVSLDVLDKRLFWIQYNREGSNSLICSCDYDGGSVHISKHPTQHNLFAMSLFGDRIFYSTWKMKTIWIANKHTGKDMVRINLHSSFVPLGELKVVHPLAQPKAEDDTWEPEQKLCKLRKGNCSSTVCGQDLQSHLCMCAEGYALSRDRKYCEDVNECAFWNHGCTLGCKNTPGSYYCTCPVGFVLLPDGKRCHQLVSCPRNVSECSHDCVLTSEGPLCFCPEGSVLERDGKTCSGCSSPDNGGCSQLCVPLSPVSWECDCFPGYDLQLDEKSCAASGPQPFLLFANSQDIRHMHFDGTDYGTLLSQQMGMVYALDHDPVENKIYFAHTALKWIERANMDGSQRERLIEEGVDVPEGLAVDWIGRRFYWTDRGKSLIGRSDLNGKRSKIITKENISQPRGIAVHPMAKRLFWTDTGINPRIESSSLQGLGRLVIASSDLIWPSGITIDFLTDKLYWCDAKQSVIEMANLDGSKRRRLTQNDVGHPFAVAVFEDYVWFSDWAMPSVMRVNKRTGKDRVRLQGSMLKPSSLVVVHPLAKPGADPCLYQNGGCEHICKKRLGTAWCSCREGFMKASDGKTCLALDGHQLLAGGEVDLKNQVTPLDILSKTRVSEDNITESQHMLVAEIMVSDQDDCAPVGCSMYARCISEGEDATCQCLKGFAGDGKLCSDIDECEMGVPVCPPASSKCINTEGGYVCRCSEGYQGDGIHCLDIDECQLGEHSCGENASCTNTEGGYTCMCAGRLSEPGLICPDSTPPPHLREDDHHYSVRNSDSECPLSHDGYCLHDGVCMYIEALDKYACNCVVGYIGERCQYRDLKWWELRHAGHGQQQKVIVVAVCVVVLVMLLLLSLWGAHYYRTQKLLSKNPKNPYEESSRDVRSRRPADTEDGMSSCPQPWFVVIKEHQDLKNGGQPVAGEDGQAADGSMQPTSWRQEPQLCGMGTEQGCWIPVSSDKGSCPQVMERSFHMPSYGTQTLEGGVEKPHSLLSANPLWQQRALDPPHQMELTQ
modifications: Pro-epidermal growth factor
**Q.** For B1, which “expression of UCP1” value is on record?
**A.** able to inhibit the expression of UCP1
